In publication PMC4941734, “Structural and dynamics studies of a truncated variant of CI repressor from bacteriophage TP901-1” (Scientific Reports, 2016):

What was measured:
[1] = molecular target: T1, CI∆58 (CI repressor, C-terminally truncated) (bacteriophage TP901-1 (host Lactococcus lactis)) (UniProt O48503); test: EMSA; conditions: 0.4 nM DNA; EMSA: ~0.4-0.5 nM Cy5 DNA, binding solution of ref 3 (not given), on ice 30 min, 2% agarose, 1x TBE, 0 °C; NMR: 300 mM NaCl, 298 K; native MS: 250 mM …
T1 sequence: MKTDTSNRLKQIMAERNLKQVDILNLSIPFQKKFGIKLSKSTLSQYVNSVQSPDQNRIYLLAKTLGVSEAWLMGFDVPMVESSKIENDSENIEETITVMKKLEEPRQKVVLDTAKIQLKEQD

[2] = tested on: CI-NTD (bacteriophage TP901-1 (host Lactococcus lactis)); test: EMSA; conditions: 0.4 nM DNA; EMSA: ~0.4-0.5 nM Cy5 DNA, binding solution of ref 3 (not given), on ice 30 min, 2% agarose, 1x TBE, 0 °C; NMR: 300 mM NaCl, 298 K; native MS: 250 mM …
[3] = molecular target: CI∆58, truncated CI repressor from bacteriophage TP901-1 (residues 1–122) (bacteriophage TP901-1) (UniProt O48503); test: native MS; apo CI∆58 6 μM in 250 mM ammonium acetate, pH 6.8; nano-ESI, quadrupole time-of-flight
[4] = molecular target: CI∆58, truncated CI repressor from bacteriophage TP901-1 (residues 1–122) (bacteriophage TP901-1) (UniProt O48503); test: SEC; HiLoad 26/60 Superdex 75; native molecular weight estimated by comparison with globular protein standards
[5] = molecular target: the molecule itself; test: as above

P5 fragment containing OL
Kd [1]: 3 nM | Kd [2]: 1100 nM

CI∆58, truncated CI repressor from bacteriophage TP901-1 (residues 1–122) (from UniProt O48503 1-122) (domain or fragment)
stoichiometry N [3]: 2 | stoichiometry N [4]: 2

B1: CI-CTD1, synthetic peptide of the dimerization region of CI repressor from bacteriophage TP901-1 (residues 90–125) (peptide)
peptide: ENIEETITVMKKLEEPRQKVVLDTAKIQLKEQDEQ
notes: CI repressor of Lactococcus lactis bacteriophage TP901-1, dimerization region CTD1; printed as residues 90-125 and as a 35 residues peptide; Delivered as a lyophilized chloride salt, purity 98.45%; solubilised at pH 12 and brought back to pH 7.5; source: synthetic peptide, bought: CASLO
stoichiometry N [5]: 4
